Reference: patent US20140105889A1 (published 2014)

B1: GpH7-B3/GpL16-k0 with P329K introduced into GpH7-B3 (antibody, human IgG1)
heavy: not shown
light: DIVMTQSPLSLPVTPGEPASISCQASESLVHSNRNTYLHWYLQKPGQSPQLLIYKVSNRFSGVPDRFSGSGSGTDFTLKISRVEAEDVGVYYCSQNTHVPPTFGQGTKVEIE
notes: Anti-glypican-3 human IgG1; constant region B3 (G1d with K439E); Fc variant; also called B3 variant; copies: 2 + 2
B2: GpH7-B3/GpL16-k0 with P329L introduced into GpH7-B3 (antibody, human IgG1)
heavy: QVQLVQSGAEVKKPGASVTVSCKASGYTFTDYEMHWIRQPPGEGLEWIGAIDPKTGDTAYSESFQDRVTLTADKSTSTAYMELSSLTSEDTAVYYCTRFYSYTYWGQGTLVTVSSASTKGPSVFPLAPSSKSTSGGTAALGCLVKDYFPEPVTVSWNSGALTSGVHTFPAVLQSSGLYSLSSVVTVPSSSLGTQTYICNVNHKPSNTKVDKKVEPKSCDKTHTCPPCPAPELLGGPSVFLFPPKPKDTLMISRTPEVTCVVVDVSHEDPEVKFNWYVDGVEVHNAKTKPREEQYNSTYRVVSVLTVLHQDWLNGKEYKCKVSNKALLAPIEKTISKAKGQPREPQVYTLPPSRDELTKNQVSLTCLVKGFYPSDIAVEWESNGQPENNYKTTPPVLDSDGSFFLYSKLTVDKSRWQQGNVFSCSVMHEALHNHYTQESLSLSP
light: B1 light
notes: as for B1
B3: GpH7-B3/GpL16-k0 with P329M introduced into GpH7-B3 (antibody, human IgG1)
heavy: not shown
light: B1 light
notes: as for B1
B4: GpH7-B3/GpL16-k0 with P329N introduced into GpH7-B3 (antibody, human IgG1)
heavy: not shown
light: B1 light
notes: as for B1
B5: GpH7-B3/GpL16-k0 with P329Q introduced into GpH7-B3 (antibody, human IgG1)
heavy: not shown
light: B1 light
notes: as for B1
B6: GpH7-B3/GpL16-k0 with P329R introduced into GpH7-B3 (antibody, human IgG1)
heavy: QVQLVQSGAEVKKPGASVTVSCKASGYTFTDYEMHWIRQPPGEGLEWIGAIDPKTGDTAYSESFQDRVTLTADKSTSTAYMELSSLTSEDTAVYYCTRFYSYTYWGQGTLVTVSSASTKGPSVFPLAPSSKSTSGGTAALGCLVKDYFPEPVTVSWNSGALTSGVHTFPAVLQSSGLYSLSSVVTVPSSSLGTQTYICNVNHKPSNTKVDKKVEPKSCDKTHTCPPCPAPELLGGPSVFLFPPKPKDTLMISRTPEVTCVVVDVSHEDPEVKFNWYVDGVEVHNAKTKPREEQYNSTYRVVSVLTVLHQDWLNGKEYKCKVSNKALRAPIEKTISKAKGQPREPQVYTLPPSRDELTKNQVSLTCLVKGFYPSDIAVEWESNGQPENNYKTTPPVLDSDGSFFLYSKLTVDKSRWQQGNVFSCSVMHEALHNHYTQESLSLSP
light: B1 light
notes: as for B1
B7: GpH7-B3/GpL16-k0 with P329T introduced into GpH7-B3 (antibody, human IgG1)
heavy: not shown
light: B1 light
notes: as for B1
B8: GpH7-B3/GpL16-k0 with P329V introduced into GpH7-B3 (antibody, human IgG1)
heavy: not shown
light: B1 light
notes: as for B1
B9: GpH7-B3/GpL16-k0 with S324K introduced into GpH7-B3 (antibody, human IgG1)
heavy: not shown
light: B1 light
notes: as for B1
B10: GpH7-B3/GpL16-k0 with S324P introduced into GpH7-B3 (antibody, human IgG1)
heavy: not shown
light: B1 light
notes: as for B1
B11: GpH7-B3/GpL16-k0 with Y300K introduced into GpH7-B3 (antibody, human IgG1)
heavy: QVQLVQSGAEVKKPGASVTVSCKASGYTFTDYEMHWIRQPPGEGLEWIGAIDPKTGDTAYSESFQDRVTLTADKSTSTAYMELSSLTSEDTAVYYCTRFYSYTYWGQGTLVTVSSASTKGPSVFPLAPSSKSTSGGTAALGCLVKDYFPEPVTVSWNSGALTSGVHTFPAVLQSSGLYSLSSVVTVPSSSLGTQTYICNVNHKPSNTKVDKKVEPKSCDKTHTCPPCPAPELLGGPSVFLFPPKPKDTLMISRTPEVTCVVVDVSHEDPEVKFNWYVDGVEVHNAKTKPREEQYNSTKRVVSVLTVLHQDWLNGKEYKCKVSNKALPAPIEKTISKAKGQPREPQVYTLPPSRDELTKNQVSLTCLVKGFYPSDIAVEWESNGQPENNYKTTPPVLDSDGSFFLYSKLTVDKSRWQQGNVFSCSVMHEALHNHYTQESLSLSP
light: B1 light
notes: as for B1
B12: GpH7-B3 D270A / GpL16-k0 (antibody, human IgG1)
heavy: not shown
light: B1 light
notes: B3 variant: anti-glypican-3 IgG1 (constant region B3 = G1d with K439E) with one substitution, EU numbering; also called B3 variant D270A; copies: 2 + 2
B13: GpH7-B3 D270F / GpL16-k0 (antibody, human IgG1)
heavy: not shown
light: B1 light
notes: B3 variant: anti-glypican-3 IgG1 (constant region B3 = G1d with K439E) with one substitution, EU numbering; also called B3 variant D270F; copies: 2 + 2
B14: GpH7-B3 D270H / GpL16-k0 (antibody, human IgG1)
heavy: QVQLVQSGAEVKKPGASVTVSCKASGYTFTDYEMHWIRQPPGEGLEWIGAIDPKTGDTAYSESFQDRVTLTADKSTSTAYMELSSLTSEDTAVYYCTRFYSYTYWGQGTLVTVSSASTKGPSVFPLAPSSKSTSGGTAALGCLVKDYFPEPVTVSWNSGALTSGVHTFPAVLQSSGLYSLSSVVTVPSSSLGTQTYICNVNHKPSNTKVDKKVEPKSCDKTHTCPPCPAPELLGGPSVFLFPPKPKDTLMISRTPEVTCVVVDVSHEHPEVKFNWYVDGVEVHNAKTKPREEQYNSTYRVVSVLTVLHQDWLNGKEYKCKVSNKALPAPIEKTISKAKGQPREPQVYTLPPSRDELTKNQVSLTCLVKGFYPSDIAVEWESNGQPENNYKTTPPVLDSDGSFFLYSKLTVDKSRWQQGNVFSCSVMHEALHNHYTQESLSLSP
light: B1 light
notes: B3 variant: anti-glypican-3 IgG1 (constant region B3 = G1d with K439E) with one substitution, EU numbering; also called B3 variant D270H; copies: 2 + 2
B15: GpH7-B3 D270I / GpL16-k0 (antibody, human IgG1)
heavy: not shown
light: B1 light
notes: B3 variant: anti-glypican-3 IgG1 (constant region B3 = G1d with K439E) with one substitution, EU numbering; also called B3 variant D270I; copies: 2 + 2
B16: GpH7-B3 D270L / GpL16-k0 (antibody, human IgG1)
heavy: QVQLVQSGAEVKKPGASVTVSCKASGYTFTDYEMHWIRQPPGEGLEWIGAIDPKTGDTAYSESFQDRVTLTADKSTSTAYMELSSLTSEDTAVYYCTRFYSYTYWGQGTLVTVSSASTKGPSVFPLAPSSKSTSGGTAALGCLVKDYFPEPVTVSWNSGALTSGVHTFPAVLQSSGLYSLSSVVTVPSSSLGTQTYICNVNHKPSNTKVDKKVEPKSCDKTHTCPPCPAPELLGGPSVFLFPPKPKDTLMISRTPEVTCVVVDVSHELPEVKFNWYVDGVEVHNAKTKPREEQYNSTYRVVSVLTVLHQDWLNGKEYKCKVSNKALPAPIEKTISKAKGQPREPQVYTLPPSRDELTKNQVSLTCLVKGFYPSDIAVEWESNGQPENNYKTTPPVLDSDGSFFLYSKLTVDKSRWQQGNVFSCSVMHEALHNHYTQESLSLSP
light: B1 light
notes: B3 variant: anti-glypican-3 IgG1 (constant region B3 = G1d with K439E) with one substitution, EU numbering; also called B3 variant D270L; copies: 2 + 2
B17: GpH7-B3 D270M / GpL16-k0 (antibody, human IgG1)
heavy: not shown
light: B1 light
notes: B3 variant: anti-glypican-3 IgG1 (constant region B3 = G1d with K439E) with one substitution, EU numbering; also called B3 variant D270M; copies: 2 + 2
B18: GpH7-B3 D270N / GpL16-k0 (antibody, human IgG1)
heavy: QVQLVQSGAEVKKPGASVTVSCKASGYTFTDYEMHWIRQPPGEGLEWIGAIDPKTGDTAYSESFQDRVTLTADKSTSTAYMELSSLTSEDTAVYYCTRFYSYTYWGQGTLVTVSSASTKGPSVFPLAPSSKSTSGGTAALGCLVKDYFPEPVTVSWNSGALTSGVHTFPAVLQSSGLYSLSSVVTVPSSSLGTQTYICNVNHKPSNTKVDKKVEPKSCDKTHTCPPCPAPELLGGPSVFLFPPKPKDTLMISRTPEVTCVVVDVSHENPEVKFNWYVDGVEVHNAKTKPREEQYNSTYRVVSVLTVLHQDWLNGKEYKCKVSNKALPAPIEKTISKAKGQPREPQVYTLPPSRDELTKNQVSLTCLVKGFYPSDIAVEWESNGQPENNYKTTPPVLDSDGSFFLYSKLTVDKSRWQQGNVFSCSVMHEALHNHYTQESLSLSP
light: B1 light
notes: B3 variant: anti-glypican-3 IgG1 (constant region B3 = G1d with K439E) with one substitution, EU numbering; also called B3 variant D270N; copies: 2 + 2
B19: GpH7-B3 D270Q / GpL16-k0 (antibody, human IgG1)
heavy: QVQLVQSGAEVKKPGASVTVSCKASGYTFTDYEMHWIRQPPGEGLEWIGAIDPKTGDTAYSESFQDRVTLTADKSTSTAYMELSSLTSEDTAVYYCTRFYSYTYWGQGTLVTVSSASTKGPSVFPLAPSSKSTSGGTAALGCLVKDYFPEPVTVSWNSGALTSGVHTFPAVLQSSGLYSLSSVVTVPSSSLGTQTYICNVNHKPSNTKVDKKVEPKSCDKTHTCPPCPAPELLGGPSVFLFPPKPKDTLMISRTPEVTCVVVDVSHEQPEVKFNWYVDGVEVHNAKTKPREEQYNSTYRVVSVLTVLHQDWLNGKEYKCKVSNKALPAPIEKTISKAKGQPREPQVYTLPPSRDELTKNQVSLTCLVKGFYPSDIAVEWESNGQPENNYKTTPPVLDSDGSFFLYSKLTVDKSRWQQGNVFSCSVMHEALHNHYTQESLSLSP
light: B1 light
notes: B3 variant: anti-glypican-3 IgG1 (constant region B3 = G1d with K439E) with one substitution, EU numbering; also called B3 variant D270Q; copies: 2 + 2
B20: GpH7-B3 D270S / GpL16-k0 (antibody, human IgG1)
heavy: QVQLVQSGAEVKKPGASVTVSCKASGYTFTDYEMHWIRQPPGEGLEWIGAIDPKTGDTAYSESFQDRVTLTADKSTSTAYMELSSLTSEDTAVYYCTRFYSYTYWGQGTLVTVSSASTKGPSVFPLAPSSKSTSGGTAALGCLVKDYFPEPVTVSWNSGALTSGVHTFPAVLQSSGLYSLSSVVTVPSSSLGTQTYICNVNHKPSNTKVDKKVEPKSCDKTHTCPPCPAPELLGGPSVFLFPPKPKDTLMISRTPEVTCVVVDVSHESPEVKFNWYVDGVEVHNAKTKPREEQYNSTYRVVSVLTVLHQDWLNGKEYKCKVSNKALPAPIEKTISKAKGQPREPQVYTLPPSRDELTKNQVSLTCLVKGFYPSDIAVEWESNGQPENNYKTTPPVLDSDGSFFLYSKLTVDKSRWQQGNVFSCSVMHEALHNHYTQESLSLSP
light: B1 light
notes: B3 variant: anti-glypican-3 IgG1 (constant region B3 = G1d with K439E) with one substitution, EU numbering; also called B3 variant D270S; copies: 2 + 2
B21: GpH7-B3 D270V / GpL16-k0 (antibody, human IgG1)
heavy: not shown
light: B1 light
notes: B3 variant: anti-glypican-3 IgG1 (constant region B3 = G1d with K439E) with one substitution, EU numbering; also called B3 variant D270V; copies: 2 + 2
B22: GpH7-B3 P271F / GpL16-k0 (antibody, human IgG1)
heavy: not shown
light: B1 light
notes: B3 variant: anti-glypican-3 IgG1 (constant region B3 = G1d with K439E) with one substitution, EU numbering; also called B3 variant P271F; copies: 2 + 2
B23: GpH7-B3 P271H / GpL16-k0 (antibody, human IgG1)
heavy: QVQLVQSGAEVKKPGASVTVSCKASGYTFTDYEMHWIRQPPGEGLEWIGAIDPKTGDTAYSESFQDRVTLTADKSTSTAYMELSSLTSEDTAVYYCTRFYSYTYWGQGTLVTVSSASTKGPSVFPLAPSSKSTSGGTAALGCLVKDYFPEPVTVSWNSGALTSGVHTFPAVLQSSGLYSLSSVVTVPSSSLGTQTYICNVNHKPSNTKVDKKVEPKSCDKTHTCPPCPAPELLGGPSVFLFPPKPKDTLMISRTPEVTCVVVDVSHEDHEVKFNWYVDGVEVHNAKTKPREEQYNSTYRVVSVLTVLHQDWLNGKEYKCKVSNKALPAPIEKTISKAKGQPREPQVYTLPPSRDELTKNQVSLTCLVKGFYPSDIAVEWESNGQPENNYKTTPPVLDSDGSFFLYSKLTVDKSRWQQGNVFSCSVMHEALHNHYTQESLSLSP
light: B1 light
notes: B3 variant: anti-glypican-3 IgG1 (constant region B3 = G1d with K439E) with one substitution, EU numbering; also called B3 variant P271H; copies: 2 + 2
B24: GpH7-B3 P271R / GpL16-k0 (antibody, human IgG1)
heavy: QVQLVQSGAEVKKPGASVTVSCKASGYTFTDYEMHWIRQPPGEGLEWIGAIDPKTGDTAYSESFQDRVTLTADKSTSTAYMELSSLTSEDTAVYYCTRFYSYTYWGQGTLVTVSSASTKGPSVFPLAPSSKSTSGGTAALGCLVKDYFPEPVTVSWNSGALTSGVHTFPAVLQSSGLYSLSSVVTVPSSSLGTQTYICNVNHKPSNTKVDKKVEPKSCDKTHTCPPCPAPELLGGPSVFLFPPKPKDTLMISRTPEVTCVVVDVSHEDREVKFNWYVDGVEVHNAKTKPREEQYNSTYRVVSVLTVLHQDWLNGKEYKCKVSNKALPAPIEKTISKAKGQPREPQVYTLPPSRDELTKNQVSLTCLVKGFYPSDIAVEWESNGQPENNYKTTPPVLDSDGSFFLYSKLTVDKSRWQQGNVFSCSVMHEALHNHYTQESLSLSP
light: B1 light
notes: B3 variant: anti-glypican-3 IgG1 (constant region B3 = G1d with K439E) with one substitution, EU numbering; also called B3 variant P271R; copies: 2 + 2

The binders below were run against T1, human FcγRIIIa(F) (human, UniProt P08637 17-208, limits assumed) (assay: SPR (Biacore), captured antibody, FcγR analyte; bound amount relative to GpH7-B3/GpL16-k0 x100;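 also: receptor response divided by the antibody amount captured on the chip before comparison with the reference antibody, measured at 25 °C in HBS-EP+ running buffer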).
T1 construct: also called FcgRIIIaF; FcγRIIIa allotype F158
T1 sequence (P08637 other isoform, or with tags, fused parts or gaps limits assumed): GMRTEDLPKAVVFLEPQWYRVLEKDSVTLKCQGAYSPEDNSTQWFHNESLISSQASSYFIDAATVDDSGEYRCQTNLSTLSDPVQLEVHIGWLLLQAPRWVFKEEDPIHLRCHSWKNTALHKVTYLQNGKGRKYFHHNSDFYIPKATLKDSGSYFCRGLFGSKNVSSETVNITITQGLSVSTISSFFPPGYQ
Description: (§1) Interaction between each modified antibody and Fcγ receptor prepared in the manner described above was analyzed using the Biacore T100 (GE Healthcare), Biacore T200 (GE Healthcare), Biacore A100 or Biacore 4000. HBS-EP+ (GE Healthcare) was used for the running buffer, and measurements were carried out at 25° C. The chips used were chips in which antigen peptides, Protein A (Thermo Scientific), Protein A/G (Thermo Scientific) or Protein L (ACTIGEN or BioVision) were immobilized on the Series S Sensor Chip CM5 (GE Healthcare) or Series S Sensor Chip CM4 (GE Healthcare) by amine coupling, or chips in which preliminarily biotinylated antigen peptides were allowed to interact and then immobilized on the Series S Sensor Chip SA (certified) (GE Healthcare). The target antibodies were captured on these sensor chips, Fcγ receptor diluted with the running buffer was allowed to interact, followed by measurement of the amount of bound antibody. The amounts bound were compared between antibodies. However, since the amount of Fcγ receptor bound depends on the amount of captured antibody, the values used for comparison were first corrected by dividing the amount of Fcγ receptor bound by the captured amount of each antibody. Through reaction with 10 mM glycine-HCl at pH 1.5, the sensor chips were regenerated by washing off antibody captured on the sensor chips and used repeatedly.
(§2) Binding strength was evaluated according to the following method based on the results of analyzing the interaction with each FcγR. […] That value was then further multiplied by 100, and the resulting value was used as an indicator of relative binding activity to each FcγR.
In the case of B1, the relative binding activity is reported as -1 % of GpH7-B3/GpL16-k0. B2 was tested, and the relative binding activity was 0 % of GpH7-B3/GpL16-k0. In the case of B3, the relative binding activity is reported as 0 % of GpH7-B3/GpL16-k0. With B4 the relative binding activity was 3 % of GpH7-B3/GpL16-k0. For B5, the relative binding activity was -1 % of GpH7-B3/GpL16-k0. With B6 the relative binding activity was -2 % of GpH7-B3/GpL16-k0. With B7 the relative binding activity was -1 % of GpH7-B3/GpL16-k0. In the case of B8, the relative binding activity is reported as 7 % of GpH7-B3/GpL16-k0. In the case of B9, the relative binding activity is reported as 74 % of GpH7-B3/GpL16-k0. In the case of B10, the relative binding activity is reported as 35 % of GpH7-B3/GpL16-k0. B11 was tested, and the relative binding activity was 35 % of GpH7-B3/GpL16-k0.

What follows are binders tested against T2, human FcγRIIIa(F) (human, UniProt P08637 17-208, limits assumed) (assay: SPR (Biacore), antibody captured, FcγR as analyte).
T2 construct: also called FcgRIIIaF; FcγRIIIa allotype F158
T2 sequence (P08637 other isoform, or with tags, fused parts or gaps limits assumed): as above
Description: as §1, §2
With B12 the “relative binding activity (amount bound / amount bound by GpH7-B3/GpL16-k0 x100)” value was 23 % of GpH7-B3/GpL16-k0. For B13, the “relative binding activity (amount bound / amount bound by GpH7-B3/GpL16-k0 x100)” value was 12 % of GpH7-B3/GpL16-k0. B14 was tested, and the “relative binding activity (amount bound / amount bound by GpH7-B3/GpL16-k0 x100)” value was 11 % of GpH7-B3/GpL16-k0. In the case of B15, the “relative binding activity (amount bound / amount bound by GpH7-B3/GpL16-k0 x100)” value is reported as 23 % of GpH7-B3/GpL16-k0. With B16 the “relative binding activity (amount bound / amount bound by GpH7-B3/GpL16-k0 x100)” value was 33 % of GpH7-B3/GpL16-k0. In the case of B17, the “relative binding activity (amount bound / amount bound by GpH7-B3/GpL16-k0 x100)” value is reported as 29 % of GpH7-B3/GpL16-k0. In the case of B18, the “relative binding activity (amount bound / amount bound by GpH7-B3/GpL16-k0 x100)” value is reported as 13 % of GpH7-B3/GpL16-k0. In the case of B19, the “relative binding activity (amount bound / amount bound by GpH7-B3/GpL16-k0 x100)” value is reported as 49 % of GpH7-B3/GpL16-k0. For B20, the “relative binding activity (amount bound / amount bound by GpH7-B3/GpL16-k0 x100)” value was 17 % of GpH7-B3/GpL16-k0. For B21, the “relative binding activity (amount bound / amount bound by GpH7-B3/GpL16-k0 x100)” value was 19 % of GpH7-B3/GpL16-k0. For B22, the “relative binding activity (amount bound / amount bound by GpH7-B3/GpL16-k0 x100)” value was 39 % of GpH7-B3/GpL16-k0. B23 was tested, and the “relative binding activity (amount bound / amount bound by GpH7-B3/GpL16-k0 x100)” value was 50 % of GpH7-B3/GpL16-k0. For B24, the “relative binding activity (amount bound / amount bound by GpH7-B3/GpL16-k0 x100)” value was 76 % of GpH7-B3/GpL16-k0.
